Consider 28 molecules from US9187525B2, “Methods of treating ophthalmic diseases using NPR-B agonists” (Shire Orphan Therapies GmbH, dated 2015).

The labels stand for the following.
B1: JAL-1895 (peptide)
peptide: [Occ][Sni]F[orn(Me2)]L[Hyp][NMeL]TR[Che]
modifications: reading uncertain; also: printed as Occ-Sni-Phe-orn(Me2)-Leu-Hyp-Nml-Thr-Arg-Che
B2: JAL-1923 (peptide)
peptide: [Occ][Sni]F[orn(Me2)]L[Hyp][NMeL][Cya]RI-NH2
modifications: reading uncertain; also: printed as Occ-Sni-Phe-orn(Me2)-Leu-Hyp-Nml-Cya-Arg-Ile-NH2
B3: JAL-1901 (peptide)
peptide: [2857‑Ac][Aoc(2)][Sni]FLL[Hyp][NMeL]DRI-NH2
modifications: not fully specified (residue 5); printed as (2857-Ac)-Hgl-Sni-Phe-leu-Leu-Hyp-Nml-Asp-Arg-Ile-NH2
B4: JAL-1921 (peptide)
peptide: [Occ][Sni]F[orn(Me2)]L[Hyp][NMeL]SRI-NH2
modifications: reading uncertain; also: printed as Occ-Sni-Phe-orn(Me2)-Leu-Hyp-Nml-Ser-Arg-Ile-NH2
B5: JAL-0749 (peptide)
peptide: Octanoyl-[dA][dA]FGLKLDR[3816]
modifications: reading uncertain; also: printed as Occ-ala-ala-Phe-Gly-Leu-Lys-Leu-Asp-Arg-3816
B6: JAL-0748 (peptide)
peptide: Octanoyl-[dA][dA]FGLKLDR[2137]
modifications: reading uncertain; also: printed as Occ-ala-ala-Phe-Gly-Leu-Lys-Leu-Asp-Arg-2137
B7: JAL-1907 (peptide)
peptide: [NHexGly][Sni]FLL[Hyp][NMeL]DRI-NH2
modifications: not fully specified (residue 4); printed as (1625-Ac)-Sni-Phe-leu-Leu-Hyp-Nml-Asp-Arg-Ile-NH2
B8: JAL-1896 (peptide)
peptide: H-[Aoc(2)][Sni]FLL[Hyp][NMeL]DRI-NH2
modifications: not fully specified (residue 4); printed as H-Hgl-Sni-Phe-leu-Leu-Hyp-Nml-Asp-Arg-Ile-NH2
B9: JAL-1899 (peptide)
peptide: H-K[dHgl][Sni]FLL[Hyp][NMeL]DRI-NH2
modifications: not fully specified (residue 5); printed as H-Lys-hgl-Sni-Phe-leu-Leu-Hyp-Nml-Asp-Arg-Ile-NH2; reading uncertain
B10: JAL-1917 (peptide)
peptide: Octanoyl-[Sni]FLL[Hyp][NMeL][pS]R[Che]
modifications: not fully specified (some residues); printed as Occ-Sni-Phe-leu-Leu-Hyp-Nml-Pse-Arg-Che; reading uncertain
B11: JAL-1916 (peptide)
peptide: [Occ][Sni]F[orn(Me2)]L[Hyp][NMeL][pS]R[Che]
modifications: reading uncertain; also: printed as Occ-Sni-Phe-orn(Me2)-Leu-Hyp-Nml-Pse-Arg-Che
B12: JAL-1912 (peptide)
peptide: Octanoyl-[Sni]FLL[Hyp][NMeL][pS]RI-NH2
modifications: not fully specified (some residues); printed as Occ-Sni-Phe-leu-Leu-Hyp-Nml-Pse-Arg-Ile-NH2
B13: JAL-1900 (peptide)
peptide: H-KP[Aoc(2)][Sni]FLL[Hyp][NMeL]DRI-NH2
modifications: not fully specified (residue 6); printed as H-Lys-Pro-Hgl-Sni-Phe-leu-Leu-Hyp-Nml-Asp-Arg-Ile-NH2
B14: JAL-1913 (peptide)
peptide: [Occ][Sni]F[orn(Me2)]L[Hyp][NMeL][pT]RI-NH2
modifications: reading uncertain; also: printed as Occ-Sni-Phe-orn(Me2)-Leu-Hyp-Nml-Pth-Arg-Ile-NH2
B15: JAL-1894 (peptide)
peptide: [Occ][Sni]F[orn(Me2)]L[Hyp][NMeL]SR[Che]
modifications: reading uncertain; also: printed as Occ-Sni-Phe-orn(Me2)-Leu-Hyp-Nml-Ser-Arg-Che
B16: JAL-1898 (peptide)
peptide: H-K[Aoc(2)][Sni]FLL[Hyp][NMeL]DRI-NH2
modifications: not fully specified (residue 5); printed as H-Lys-Hgl-Sni-Phe-leu-Leu-Hyp-Nml-Asp-Arg-Ile-NH2
B17: JAL-1897 (peptide)
peptide: H-[dHgl][Sni]FLL[Hyp][NMeL]DRI-NH2
modifications: not fully specified (residue 4); printed as H-hgl-Sni-Phe-leu-Leu-Hyp-Nml-Asp-Arg-Ile-NH2; reading uncertain
B18: JAL-1924 (peptide)
peptide: [Occ][Sni]F[orn(Me2)]L[Hyp][NMeL]TRI-NH2
modifications: reading uncertain; also: printed as Occ-Sni-Phe-orn(Me2)-Leu-Hyp-Nml-Thr-Arg-Ile-NH2
B19: JAL-1918 (peptide)
peptide: [Occ][Sni]F[orn(Me2)]L[Hyp][NMeL][pT]R[Che]
modifications: reading uncertain; also: printed as Occ-Sni-Phe-orn(Me2)-Leu-Hyp-Nml-Pth-Arg-Che

Numbered stars: 1 amine (or outer) side, 2 acyl side, 3 side chain; on linkers, the order of the positions; unused ones are H or OH. Square brackets hold non-standard residues; d marks the D form. Ends that are not written are not given here. * marks the point of attachment. 2857‑Ac = 2-((2S,3R,4R,5R)-2,3,4,5,6-pentahydroxyhexylamino)acetic acid, O=C(CN(C[C@H](O)[C@@H](O)[C@H](O)[C@H](O)CO)[*:1])[*:2]; Eao = rac-1-amino-2,3-dihydro-1H-indene-1-carboxylic acid, O=C(C1(N[*:1])CCc2ccccc21)[*:2]; Sni = (S)-nipecotic acid, O=C([C@H]1CCCN([*:1])C1)[*:2]; Egg = 2-Amino-3-piperidin-4-yl-propionic acid; pT = C[C@@H](OP(=O)(O)O)[C@H](N)C(=O)O; Cya = N[C@@H](CS(=O)(=O)O)C(=O)O; Hyp = O=C(O)[C@@H]1C[C@@H](O)CN1; pS = N[C@@H](COP(=O)(O)O)C(=O)O; Aoc(2) = CCCCCC[C@H](N)C(=O)O; NMeL = CN[C@@H](CC(C)C)C(=O)O; Aic = NC1(C(=O)O)Cc2ccccc2C1; orn(Me2) = not defined here; NHexGly = CCCCCCNCC(=O)O; Octanoyl = CCCCCCCC(=O)*; 2137 = not defined here; 3816 = not defined here; dHgl = not defined here; Che = not defined here; Rni = not defined here; leu = not defined here; ppa = not defined here; Occ = octanoic acid; Dha = C=C(N)C(=O)O Where only a bound is given, the exact number is not on record here.

For the assay, the target named is T1, natriuretic peptide receptor-B (human).
T1 chain: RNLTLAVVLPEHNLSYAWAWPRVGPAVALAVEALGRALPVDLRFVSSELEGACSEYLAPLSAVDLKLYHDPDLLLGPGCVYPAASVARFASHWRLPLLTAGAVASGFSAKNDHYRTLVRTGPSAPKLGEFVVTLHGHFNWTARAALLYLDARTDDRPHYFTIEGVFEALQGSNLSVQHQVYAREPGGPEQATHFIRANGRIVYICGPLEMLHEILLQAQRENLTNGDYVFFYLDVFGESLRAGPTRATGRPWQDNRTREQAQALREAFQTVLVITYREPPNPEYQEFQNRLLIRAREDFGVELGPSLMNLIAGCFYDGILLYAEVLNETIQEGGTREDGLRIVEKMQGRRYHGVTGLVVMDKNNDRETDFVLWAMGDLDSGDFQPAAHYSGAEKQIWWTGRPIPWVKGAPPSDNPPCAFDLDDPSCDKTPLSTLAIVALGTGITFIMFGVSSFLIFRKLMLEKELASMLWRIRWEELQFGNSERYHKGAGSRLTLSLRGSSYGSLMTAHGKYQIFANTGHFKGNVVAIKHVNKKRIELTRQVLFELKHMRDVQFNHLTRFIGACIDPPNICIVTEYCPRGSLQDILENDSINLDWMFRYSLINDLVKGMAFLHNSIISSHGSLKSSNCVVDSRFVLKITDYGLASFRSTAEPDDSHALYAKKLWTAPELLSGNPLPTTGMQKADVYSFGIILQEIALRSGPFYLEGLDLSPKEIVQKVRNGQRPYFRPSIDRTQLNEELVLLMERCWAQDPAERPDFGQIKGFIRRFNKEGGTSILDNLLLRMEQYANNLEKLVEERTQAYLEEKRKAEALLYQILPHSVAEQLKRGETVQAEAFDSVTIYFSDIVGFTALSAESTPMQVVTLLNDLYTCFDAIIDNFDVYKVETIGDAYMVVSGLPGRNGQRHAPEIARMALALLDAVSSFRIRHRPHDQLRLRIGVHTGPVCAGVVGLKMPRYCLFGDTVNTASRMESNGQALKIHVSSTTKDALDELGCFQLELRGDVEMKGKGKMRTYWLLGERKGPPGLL
The experiment in a line: cell-based or functional assay.
Consider [Occ][Rni]FGLKLDRI-NH2 (reading uncertain; also: printed as Occ-Rni-Phe-Gly-Leu-Lys-Leu-Asp-Arg-Ile-NH2) [JAL-0744], for which the “EC50 group, cGMP in GTM-3 cells” value was at most 15 µM.
On to [Occ][Sni]F[Aic]L[Hyp][NMeL]DRI-NH2 [JAL-1893], for which the “EC50 group, cGMP in GTM-3 cells” value is at most 5 µM.
With [Occ][Sni]F[leu]L[Hyp][NMeL]SRI-NH2 (reading uncertain; also: printed as Occ-Sni-Phe-leu-Leu-Hyp-Nml-Ser-Arg-Ile-NH2) [JAL-1920], the “EC50 group, cGMP in GTM-3 cells” value was at most 5 µM.
For [Occ][Sni]F[Eao]L[Hyp][NMeL]DRI-NH2 [JAL-1892], the “EC50 group, cGMP in GTM-3 cells” value was at most 5 µM.
As to B1, the “EC50 group, cGMP in GTM-3 cells” value is at most 1 µM.
For B2, the “EC50 group, cGMP in GTM-3 cells” value is at most 5 µM.
The same measure for B3: at most 5 µM; for [Occ][Sni]F[Dha]L[Hyp][NMeL]DRI-NH2 [JAL-1915_2]: at most 5 µM; for B4: at most 15 µM.
In the case of B5, the “EC50 group, cGMP in GTM-3 cells” value was at most 15 µM.
For B6, the “EC50 group, cGMP in GTM-3 cells” value is at most 15 µM.
Then B7, with at most 5 µM; and B8, with at most 5 µM.
For the molecule B9, the “EC50 group, cGMP in GTM-3 cells” value was at most 5 µM.
As to B10, the “EC50 group, cGMP in GTM-3 cells” value was at most 15 µM.
With B11, the “EC50 group, cGMP in GTM-3 cells” value was at most 15 µM.
Consider [Occ][Sni]F[Egg]L[Hyp][NMeL]DRI-NH2 [JAL-1890], for which the “EC50 group, cGMP in GTM-3 cells” value was at most 1 µM.
Regarding [Occ][Sni]F[leu]L[Hyp][NMeL][Cya]RI-NH2 (reading uncertain; also: printed as Occ-Sni-Phe-leu-Leu-Hyp-Nml-Cya-Arg-Ile-NH2) [JAL-1922], the “EC50 group, cGMP in GTM-3 cells” value was at most 5 µM.
Take B12: the “EC50 group, cGMP in GTM-3 cells” value was at most 15 µM.
The same measure for [Occ][Sni]F[leu]L[Hyp][NMeL][pT]R[Che] (reading uncertain; also: printed as Occ-Sni-Phe-leu-Leu-Hyp-Nml-Pth-Arg-Che) [JAL-1919]: at most 5 µM; for B13: at most 1 µM.
Then B14, with at most 15 µM; and B15, with at most 5 µM.
The same measure for B16: at most 5 µM; for B17: at most 5 µM; for B18: at most 5 µM.
Turning to [Occ][Sni]F[ppa]L[Hyp][NMeL]DRI-NH2 (reading uncertain; also: printed as Occ-Sni-Phe-ppa-Leu-Hyp-Nml-Asp-Arg-Ile-NH2) [JAL-1889], the “EC50 group, cGMP in GTM-3 cells” value was at most 5 µM.
On to B19, for which the “EC50 group, cGMP in GTM-3 cells” value is at most 5 µM.
